Measured values as given in PMC7972335.
Several values for one entry are separate records, joined by “and”; a condition that tells them apart may be missing. Identical values can stand only once.

Key:
[1] = target: trimeric extracellular domain of the S protein of SARS-CoV-2 (SARS-CoV-2) (UniProt P0DTC2); assay: cryo-EM structure; S protein incubated with PD of ACE2; three conformations
[2] = target: trypsin-digested S protein (extracellular domain of the SARS-CoV-2 S protein cleaved at S1/S2) (SARS-CoV-2); assay: cryo-EM structure

For “peptidase domain (PD) of ACE2 (domain or fragment)”, the percent of particles in conformation 2 (one PD bound) [1] was 24.4%, the percent of particles in conformation 3 (one PD bound) [1] was 67.7% and the percent of particles in conformation 1 (one PD bound) [2] was 9.5%. For the same substance, the percent of particles in conformation 2 (two PD bound) [2] was 84.5%, the percent of particles in conformation 3 (two PD bound) [2] was 6% and the stoichiometry N (PD per S(p) trimer) [2] was 1 and 2.
